Laboratory results published in patent US20230220057A1 (STAIDSON BEIJING BIOPHARMACEUTICALS, published 2023).
Substitutions are numbered along the chain they refer to.

B1: Ab12 (antibody, human IgG1, V domains shown)
VH: EVQLVQSGAEVKKPGATVKISCKVSGYSFITYWISWVQQAPGKGLEWMGAIDPSDSDARYSPSFQGRVTITADTSTDTAYMELSSLRSEDTAVYYCAKSDPGYSGYSLLYGFDSWGQGTLVTVSS
VL: DIVMTQTPLSSPVTLGQPASISCRSSQSLVQRNGNTYLSWYQQRPGQPPRLLIYQVSNRYSGVPDRFSGSGAGTDFTLKISRVEAEDVGVYYCGQGAHLPLTFGQGTKVEIK
B2: Ab29 (antibody, human IgG1, V domains shown)
VH: B1 VH with T74K
VL: B1 VL with T7S, S11L, A72S
B3: Ab25 (antibody, human IgG1, V domains shown)
VH: B1 VH with T74K
VL: B1 VL with I2V, T7S, S11L, A72S
B4: Ab19 (antibody, human IgG1, V domains shown)
VH: B1 VH
VL: B1 VL with T7S, S11L, A72S
B5: Ab20 (antibody, human IgG1, V domains shown)
VH: B1 VH
VL: B1 VL with T7S, S11L, Y41F, A72S
B6: Ab21 (antibody, human IgG1, V domains shown)
VH: B1 VH with T74K
VL: B1 VL with Y41L
B7: Ab34 (antibody, human IgG1, V domains shown)
VH: B1 VH with S28T, T74K
VL: B1 VL with I2V, T7S, S11L, P48S, A72S
B8: Ab51 (antibody, human IgG1, V domains shown)
VH: EVQLVQSGAEVKKPGESLKISCKISGYSFITYWISWVRQMPGKGLEWMGAIDPSDSDARYSPSFQGQVTISADKSISTAYLQWSSLKASDTAMYYCAKSDPGYSGYSLLYGFDSWGQGTLVTVSS
VL: B1 VL with Y41L
B9: Ab18 (antibody, human IgG1, V domains shown)
VH: B1 VH
VL: B1 VL with T7S, S11L, P48S, A72S
B10: Ab23 (antibody, human IgG1, V domains shown)
VH: B1 VH with T74K
VL: B1 VL with I2V, T7S, S11L, Y41F, P48S, A72S
B11: Ab28 (antibody, human IgG1, V domains shown)
VH: B1 VH with T74K
VL: B1 VL with T7S, S11L, P48S, A72S
B12: Ab40 (antibody, human IgG1, V domains shown)
VH: B1 VH with S28T, T74K
VL: B1 VL with T7S, S11L, Y41F, A72S
B13: Ab38 (antibody, human IgG1, V domains shown)
VH: B1 VH with S28T, T74K
VL: B1 VL with T7S, S11L, P48S, A72S
B14: Ab50 (antibody, human IgG1, V domains shown)
VH: B8 VH with I24G
VL: B1 VL with T7S, S11L, Y41F, A72S
B15: Ab24 (antibody, human IgG1, V domains shown)
VH: B1 VH with T74K
VL: B1 VL with I2V, T7S, S11L, P48S, A72S
B16: Ab53 (antibody, human IgG1, V domains shown)
VH: B8 VH
VL: B1 VL with I2V, T7S, S11L, Y41F, P48S, A72S
B17: Ab32 (antibody, human IgG1, V domains shown)
VH: B1 VH with S28T, T74K
VL: B1 VL
B18: Ab26 (antibody, human IgG1, V domains shown)
VH: B1 VH with T74K
VL: B1 VL with I2V, T7S, S11L, Y41F, A72S
B19: Ab33 (antibody, human IgG1, V domains shown)
VH: B1 VH with S28T, T74K
VL: B1 VL with I2V, T7S, S11L, Y41F, P48S, A72S
B20: Ab43 (antibody, human IgG1, V domains shown)
VH: B8 VH with I24G
VL: B1 VL with I2V, T7S, S11L, Y41F, P48S, A72S
B21: Ab14 (antibody, human IgG1, V domains shown)
VH: B1 VH
VL: B1 VL with I2V, T7S, S11L, P48S, A72S
B22: Ab30 (antibody, human IgG1, V domains shown)
VH: B1 VH with T74K
VL: B1 VL with T7S, S11L, Y41F, A72S
B23: Ab27 (antibody, human IgG1, V domains shown)
VH: B1 VH with T74K
VL: B1 VL with T7S, S11L, Y41F, P48S, A72S
B24: Ab22 (antibody, human IgG1, V domains shown)
VH: B1 VH with T74K
VL: B1 VL
B25: Ab39 (antibody, human IgG1, V domains shown)
VH: B1 VH with S28T, T74K
VL: B1 VL with T7S, S11L, A72S
B26: Ab35 (antibody, human IgG1, V domains shown)
VH: B1 VH with S28T, T74K
VL: B1 VL with I2V, T7S, S11L, A72S
B27: Ab13 (antibody, human IgG1, V domains shown)
VH: B1 VH
VL: B1 VL with I2V, T7S, S11L, Y41F, P48S, A72S
B28: Ab31 (antibody, human IgG1, V domains shown)
VH: B1 VH with S28T, T74K
VL: B1 VL with Y41L
B29: Ab41 (antibody, human IgG1, V domains shown)
VH: B8 VH with I24G
VL: B1 VL with Y41L
B30: Ab15 (antibody, human IgG1, V domains shown)
VH: B1 VH
VL: B1 VL with I2V, T7S, S11L, A72S
B31: Ab17 (antibody, human IgG1, V domains shown)
VH: B1 VH
VL: B1 VL with T7S, S11L, Y41F, P48S, A72S
B32: Ab6 Fab (Fab, V domains shown)
VH: B1 VH with S28T
VL: B1 VL with I2V, T7S, S11L, Y41F, A72S
B33: Ab61 Fab (Fab, V domains shown)
VH: B1 VH with S28T
VL: B1 VL with I2V, T7S, S11L, G34A, P48S, A72S
B34: Ab4 Fab (Fab, V domains shown)
VH: B1 VH with S28T
VL: B1 VL with I2V, T7S, S11L, P48S, A72S
B35: Ab36 Fab (Fab, V domains shown)
VH: B1 VH with S28T, T74K
VL: B1 VL with I2V, T7S, S11L, Y41F, A72S
B36: Ab37 Fab (Fab, V domains shown)
VH: B1 VH with S28T, T74K
VL: B1 VL with T7S, S11L, Y41F, P48S, A72S
B37: Ab10 Fab (Fab, V domains shown)
VH: B1 VH with S28T
VL: B1 VL with T7S, S11L, Y41F, A72S
B38: Ab16 Fab (Fab, V domains shown)
VH: B1 VH
VL: B1 VL with I2V, T7S, S11L, Y41F, A72S

These molecules were tested against recombinantly produced human-NGF (human, UniProt P01138 122-241, limits assumed) (assay: ELISA, human NGF coated, IgG titrated).
Sequence of recombinantly produced human-NGF (P01138 122-241 limits assumed): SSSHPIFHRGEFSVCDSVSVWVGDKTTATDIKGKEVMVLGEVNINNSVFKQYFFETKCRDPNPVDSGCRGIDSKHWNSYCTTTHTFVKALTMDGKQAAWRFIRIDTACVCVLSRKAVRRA
Protocol: NGF binding ELISA assay: In human NGF binding ELISA, Corning 3366 high binding 96 well plates were coated with recombinantly produced human-NGF at 1 μg per ml, 50 μl/well in 1×PBS, and incubated overnight at 4° C. The plates were washed and blocked with 250 μl of 1×PBS/1% BSA at least 30 minutes at room temperature. 50 μl of culture supernatants, after 1:1 diluted by the PBS/BSA diluent, or the purified antibodies diluted serially from a certain concentration with the diluent, were added per well, and incubated at 37° C. for 2 hours. After washing, a secondary antibody, goat anti-human IgG Fc AP (Southern biotech) was applied at a dilution of 1:3000 in PBS/BSA. The plates were incubated for 1 hour at RT and washed. After adding the PNPP substrate, the ODs at 405 nm were read.
NGF binding ELISA assay: NGF binding ELISA assay was performed as described in Example 1.
Work on B1 yielded an EC50 of 0.0365 ng/mL.
For B2, the EC50 was 0.0292 ng/mL.
For B3, the EC50 was 0.0331 ng/mL.
In the case of B4, the EC50 is reported as 0.0324 ng/mL.
B5 was tested, and the EC50 was 0.0215 ng/mL.
In the case of B6, the EC50 is reported as 0.0403 ng/mL.
In the case of B7, the EC50 is reported as 0.11 ng/mL.
With B8 the EC50 was 0.0221 ng/mL.
B9 gave an EC50 of 0.0271 ng/mL.
B10 showed an EC50 of 0.0405 ng/mL.
B11 showed an EC50 of 0.0331 ng/mL.
With B12 the EC50 was 0.0172 ng/mL.
Work on B13 yielded an EC50 of 0.0252 ng/mL.
In the case of B14, the EC50 is reported as 0.00629 ng/mL.
In the case of B15, the EC50 is reported as 0.0399 ng/mL.
Molecule B16 has an EC50 of 0.0482 ng/mL.
B17 was tested, and the EC50 was 0.0403 ng/mL.
B18 showed an EC50 of 0.0234 ng/mL.
B19 was tested, and the EC50 was 0.0342 ng/mL.
Work on B20 yielded an EC50 of 0.0221 ng/mL.
For B21, the EC50 was 0.0351 ng/mL.
Work on B22 yielded an EC50 of 0.0254 ng/mL.
B23 gave an EC50 of 0.0206 ng/mL.
In the case of B24, the EC50 is reported as 0.0382 ng/mL.
Work on B25 yielded an EC50 of 0.0208 ng/mL.
For B26, the EC50 was 0.0308 ng/mL.
Work on B27 yielded an EC50 of 0.043 ng/mL.
For B28, the EC50 was 0.0502 ng/mL.
B29 showed an EC50 of 0.0192 ng/mL.
B30 gave an EC50 of 0.046 ng/mL.
In the case of B31, the EC50 is reported as 0.016 ng/mL.

What follows are molecules tested against T1, human NGF-Fc protein (human, UniProt P01138 122-241, limits assumed) (assay: BLI (Octet Red), human NGF-Fc captured on anti-human Fc sensors, Fab in solution).
T1 construct: not shown: human IgG1 Fc or IgG4 Fc
T1 sequence (P01138 122-241 limits assumed): as above
Protocol: FortéBio BioLayer Interferometry (BLI) technology was chosen as the method for affinity determination by using Octet Red system. NGF is a homodimer protein in its nature form. […] For the purpose of affinity measurement, monovalent Fab fragments of IgG were prepared using Fab preparation kit (Pierce).
After purification, the Fab concentration was determined by OD280 according to the extinction coefficient calculated based on its sequence. […] For each assay, an array of Fab concentrations from about 50 nM to less than 1 nM in kinetic buffer (PALL) were tested by NGF-Fc sensors with the association time of 300 seconds and dissociation time of 1200 seconds. The kinetic data were analyzed using program Data Analysis HT 10.0 according to the manual. All the tests were repeated at least twice in independent assays.
Tanezumab Fab gave a Kd of 0.169 nM, a koff of 6.14e-05 s⁻¹ and a kon of 364000 M⁻¹ s⁻¹.
With B32 the Kd was 0.866 nM, the koff was 6.33e-05 s⁻¹ and the kon was 73100 M⁻¹ s⁻¹.
Molecule B33 has a Kd of 0.139 nM, a koff of 5.13e-05 s⁻¹ and a kon of 370000 M⁻¹ s⁻¹.
Molecule B34 has a Kd of 0.0746 nM, a koff of 2.99e-05 s⁻¹ and a kon of 401000 M⁻¹ s⁻¹.
Molecule B35 has a Kd of 0.258 nM, a koff of 7.35e-05 s⁻¹ and a kon of 285000 M⁻¹ s⁻¹.
Work on B36 yielded a Kd of 3.25 nM, a koff of 5.27e-05 s⁻¹ and a kon of 16200 M⁻¹ s⁻¹.
B37 was tested, and the koff was 7.48e-05 s⁻¹.
B38 gave a Kd of 1.37 nM, a koff of 7.11e-05 s⁻¹ and a kon of 51700 M⁻¹ s⁻¹.
